{"source": "patent US8530235B2", "about": "“Medium that supports culture of an oocyte and modulation of granulosa cell apoptosis” (Adelaide Research & Innovation Pty Ltd., priority 2005, dated 2013)", "molecules": {"B1": {"name": "GDF-9: Recombinant mouse GDF-9 produced in-house in transfected 293H cells, partially purified by HIC (protein, UniProt Q07105 307-441, looked up)", "Growth/differentiation factor …": "GQKAIRSEAKGPLLTASFNLSEYFKQFLFPQNECELHDFRLSFSQLKWDNWIVAPHRYNPRYCKGDCPRAVRHRYGSPVHTMVQNIIYEKLDPSVPRPSCVPGKYSPLSVLTIEPDGSIAYKEYEDMIATRCTCR"}}, "system": "Smad 3-responsive CAGA-luciferase reporter", "assay": "Smad 3-responsive CAGA-luciferase reporter in mural granulosa cells from large antral follicles", "assay_type": "cell-based, marmoset monkey, Callithrix jacchus", "details": "48 h; 0.5 ng/ml TGFβ1, 88-265 ng/ml GDF9, 50 ng/ml BMP7 or 60 mouse oocytes", "method": "FIGS. 18A and 18B show the activation of the TGF-β signalling pathway by GDF9 and oocytes. MGC from large follicles were transiently transfected with either a Smad 3-responsive CAGA-luciferase reporter construct (A) or a Smad 1-responsive BRE-luciferase reporter construct (B). Cells were subsequently left untreated, treated with 0.5 ng/ml TGFβ1, 88-265 ng/ml GDF9, 50 ng/ml BMP7 or co-cultured with 60 mouse oocytes. Cells were cultured for 48 h after which time luciferase activity was measured from cell extracts. Bars represent means+/− SEM from 3 replicate experiments expressed as a fold change relative to control.\nLuciferase reporter constructs responsive to specific phosphorylated Smads were used to detect the activation of mural GC Smad proteins by recombinant GDF9 Mural GCs were collected and processed as described above, except cells were given a final wash in DMEM(MP Biomedicals, Seven Hills, Australia)+2% FCS (Trace Biosciences, Castle Hill, Australia). Following the final wash, cells were transferred to individual wells of a 96-well plate (Falcon) and cultured at 1.6×10^5 cells/ml. After 4 hours of culture, cells were transiently transfected with 50 ng of luciferase reporter construct DNA using Fugene 6 (Roche Diagnostics, Castle Hill, Australia). 18 hours after transfection, medium was aspirated from cells and replaced with DMEM supplemented with 0.1% FCS. Various ligands were added to cells at this point (see below) and the culture period extended for a further 48 hours. Experiments were terminated by removing media from wells and freezing plates at −20° C. […]\nSeven adult female marmosets were primed with […] for 6 days, whole ovaries were removed on day 7, follicles manually excised, and GC were then collected from 3 size classes: periantral (PA; 0.42-0.66 mm), small antral (SA; 0.66-1.5 mm) and large antral (LA; >1.5 mm). […] In order to determine the effects of GDF9 on marmoset GC proliferation, we employed a GC bioassay whereby after 24 h ^3H-thymidine incorporation is assessed as an indicator of DNA synthesis and cellular proliferation. […]"}
{"molecule": "B1", "values": [{"measurement": "CAGA-luciferase activity above control levels", "value": 5, "unit": "fold"}]}
